We go through one substance from US20210146029A1.

In the assay the target is sTNF-R1 (soluble Tumor Necrosis Factor Receptor 1), spiked into buffer or human plasma (UniProt P19438). Put plainly: column run with spiked human plasma (9.74 ng/mL sTNF-R1), pre- against post-column concentration at each time point.
Sequence of UniProt P19438 (P19438 30-211 limits assumed): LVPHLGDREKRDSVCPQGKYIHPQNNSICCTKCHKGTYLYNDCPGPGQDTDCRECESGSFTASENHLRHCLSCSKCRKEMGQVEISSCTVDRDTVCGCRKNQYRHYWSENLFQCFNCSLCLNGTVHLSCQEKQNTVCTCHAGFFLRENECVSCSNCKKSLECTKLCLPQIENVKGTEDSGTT

For the substance “recombinant single chain TNFα ligand (sc-TNFα ligand, comprising 3 TNFα monomers), covalently linked to agarose beads”, the binding efficiency was over 95%.
